Drawing on publication doi:10.1101/388868, this text covers Kd for one molecule.

This test addresses C. elegans UNC-13 long isoform residues 1-258 bearing the K49E mutation (C. elegans). Briefly: ITC. In general terms: Isothermal titration calorimetry measures the heat released or taken up as one component is titrated into another.

B1: C. elegans UNC-10 residues 62-121 WT (domain or fragment)
chain: KLVGTQDDAICQICQKTKFADGIGHKCFYCQLRSCARCGGRAQSKNKAIWACSLCQKRQQ
Broadly, the Kd is the equilibrium constant for the complex coming apart. B1: the Kd was 1290 nM.
